Measurements published in US8198236B2, “Methods and compositions for the treatment of cancer” (Washington University, priority 2007, dated 2012).

Assays:
[1] = Pharmacokinetics of 125I-labeled Mesd or Mesd peptide, intravenous or subcutaneous
Description: In experiments shown in FIG. 23, pharmacokinetics of Mesd peptide and Mesd were examined. FIG. 23A: Amount of Mesd in serum following a single dose of protein administration. Mice were dosed at 5, 10, 20 mg/kg of Mesd via i.p. and the serum samples were collected from individual mice at the indicated time points. The levels of Mesd in serum were quantified by comparison to Mesd pure protein with known concentrations in Western blot analysis. Values are the average of triple determinations with S.D. indicated by error bars. […] Samples were obtained by terminal bleed under anesthesia at each of the indicated time points (N=3 animals per time point). Radioactivity was measured using a gamma counter and DPM converted to mass units/mL blood using the specific activity (DPM/mass) of each test substance. Data are plotted as mass U/mL of test substance with standard deviation indicated by error bars.

HCC1187 cells = assay: MTT assay of Wnt3a CM-stimulated growth of HCC1187 cells; type: cell-based, human; conditions: Mesd 1 μM, 24 h
Description: Cell growth and cell proliferation were measured by MTT assay (Promega) and BrdU incorporation using the BrdU ELISA kit (Roche Molecular Systems) according to the manufacturers' instructions. […] Breast cancer cells expressing control or LRP6 shRNA were seeded into 48-well plates. MTT-labeling reagent was added to each well 24 h later, and plates were incubated at 37° C. for 4 h. After the incubation period, the formazan crystals were dissolved in an MTT solubilization reagent and the resulting color was quantified spectrophotometrically. In some experiments, cell proliferation was measured by BrdU incorporation using the BrdU ELISA kit (Roche Molecular Systems) according to the manufacturer's instructions. Briefly, cancer cells expressing control or LRP6 shRNA were plated on 96-well plate. Cells were incubated with BrdU for 24 h, and the newly synthesized BrdU-DNA was then determined by colorimetry using an ELISA reader. All experiments were performed three times in triplicate.
In FIG. 20, * indicates p<0.05 compared to L cell CM; ** indicates p<0.01 compared to L cell CM.

LRP = target: T1, LRP (Homo sapiens, UniProt Q07954); assay: 125I-Mesd binding to U87 cells and aortic smooth muscle cells expressing abundant LRP; conditions: 125I-Mesd 5 nM, 4 hours at 4° C.
T1 construct: U87 cells and SMC express abundant LRP; endogenous in cells; host or cells: U87 glioblastoma cells; human aortic smooth muscle cells
Description: (§1) Cells (2×10^5) were seeded into 12-well dishes 1 day prior to assay. Ligand-binding buffer (minimal Eagle's medium containing 0.6% BSA with a different concentration of radioligand, 0.6 ml/well) was added to cell monolayers, in the absence or the presence of 500 nM unlabeled RAP or 500 nM unlabeled Mesd, followed with incubation for 0-4 hours at 4° C. Thereafter, overlying buffer containing unbound ligand was removed, and cell monolayers were washed and lysed in low-SDS lysis buffer (62.5 mM Tris-HCl pH 6.8, 0.2% SDS, 10% v/glycerol) and counted.
To determine whether Mesd binds to other members of the LDLR family, ^125I-Mesd binding analysis was performed with four groups of cells expressing different members of the LDLR family (FIG. 2). In the first experiment, HEK293 cells were transiently transfected with cDNAs for the LDLR, LRP5, LRP6 or empty pcDNA3 vector. […]

LRP6 = target: T2, LRP6 (Homo sapiens, UniProt O75581); assay: 125I-RAP binding to LRP6-transduced HT1080 cells; conditions: 500 nM unlabeled Mesd
T2 construct: expressed in transfected cells; host or cells: human HT1080 cells, retroviral vector pLNCX2
Description: as §1
Receptor-associated protein (RAP) binds with high affinity to LRP, megalin, VLDLR and apoER2, and with a lower affinity to the LDLR (Bu, G., Int. Rev. Cytol. 209, 79-116. 2001). To determine whether RAP and Mesd bind to identical, overlapping, or different sites on the receptors, we performed binding and competition analysis of these two chaperones with HT1080 cells stably expressing LRP6.
In FIG. 8A, binding of ^125I-RAP (5 nM) to LRP6-transduced HT1080 cells and the control cells was carried out for 4 hours at 4° C. in the absence (total) or presence of 500 nM RAP, or 500 nM Mesd. In FIG. 8B, binding of^125I-Mesd (5 nM) to LRP6-transduced HT1080 cells was carried out for 2 hours at 4° C. in the absence (total) or presence of various concentrations of RAP or 500 nM Mesd. […]

T2 sequence (O75581 20-1613): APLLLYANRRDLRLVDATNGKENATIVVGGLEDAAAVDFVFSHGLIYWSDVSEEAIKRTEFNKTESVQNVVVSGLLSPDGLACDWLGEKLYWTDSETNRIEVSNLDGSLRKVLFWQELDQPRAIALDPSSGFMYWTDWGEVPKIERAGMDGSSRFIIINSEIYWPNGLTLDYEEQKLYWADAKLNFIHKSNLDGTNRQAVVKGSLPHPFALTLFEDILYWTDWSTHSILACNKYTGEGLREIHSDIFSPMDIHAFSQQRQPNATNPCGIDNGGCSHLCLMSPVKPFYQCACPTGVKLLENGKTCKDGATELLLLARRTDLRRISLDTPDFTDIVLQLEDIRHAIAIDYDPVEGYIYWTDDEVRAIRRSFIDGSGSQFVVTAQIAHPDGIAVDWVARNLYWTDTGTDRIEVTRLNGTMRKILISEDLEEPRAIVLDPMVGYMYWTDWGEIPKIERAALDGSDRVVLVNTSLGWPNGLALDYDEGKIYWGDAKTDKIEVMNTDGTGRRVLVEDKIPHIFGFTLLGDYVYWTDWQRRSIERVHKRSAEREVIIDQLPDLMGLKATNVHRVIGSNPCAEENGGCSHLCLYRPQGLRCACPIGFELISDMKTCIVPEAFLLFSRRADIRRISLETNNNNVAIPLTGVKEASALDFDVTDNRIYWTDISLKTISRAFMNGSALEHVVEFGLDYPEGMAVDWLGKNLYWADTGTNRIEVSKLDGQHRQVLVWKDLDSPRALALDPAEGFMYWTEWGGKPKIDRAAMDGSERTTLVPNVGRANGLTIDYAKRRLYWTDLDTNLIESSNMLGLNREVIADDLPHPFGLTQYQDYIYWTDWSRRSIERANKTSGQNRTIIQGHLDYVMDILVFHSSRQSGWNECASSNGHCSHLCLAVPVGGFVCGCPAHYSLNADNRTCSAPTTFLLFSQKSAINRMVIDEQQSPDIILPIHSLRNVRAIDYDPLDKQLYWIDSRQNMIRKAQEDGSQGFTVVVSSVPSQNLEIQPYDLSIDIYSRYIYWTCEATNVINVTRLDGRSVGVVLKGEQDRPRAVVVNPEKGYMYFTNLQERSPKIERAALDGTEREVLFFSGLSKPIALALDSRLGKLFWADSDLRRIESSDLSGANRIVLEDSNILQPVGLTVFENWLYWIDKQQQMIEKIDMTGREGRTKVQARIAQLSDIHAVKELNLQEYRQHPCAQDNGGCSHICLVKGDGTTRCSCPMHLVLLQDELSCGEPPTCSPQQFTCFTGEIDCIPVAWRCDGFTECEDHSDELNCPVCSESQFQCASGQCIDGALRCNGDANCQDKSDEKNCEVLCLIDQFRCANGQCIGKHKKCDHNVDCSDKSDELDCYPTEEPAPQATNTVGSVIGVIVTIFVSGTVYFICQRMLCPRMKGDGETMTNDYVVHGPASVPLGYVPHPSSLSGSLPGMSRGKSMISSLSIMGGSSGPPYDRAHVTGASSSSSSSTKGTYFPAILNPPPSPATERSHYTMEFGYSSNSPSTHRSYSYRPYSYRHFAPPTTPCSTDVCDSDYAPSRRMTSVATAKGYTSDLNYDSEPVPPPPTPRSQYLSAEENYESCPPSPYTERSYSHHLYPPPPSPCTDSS

B1: Mesd: Recombinant full-length mouse Mesd expressed in E. coli, N-terminal polyhistidine tail, lacking the signal peptide (protein)
chain: ADTPGEATPPPRKKKDIRDYNDADMARLLEQWEKDDDIEEGDLPEHKRPSAPIDFSKLDPGKPESILKMTKKGKTLMMFVTVSGNPTEKETEEITSLWQGSLFNANYDVQRFIVGSDRAIFMLRDGSYAWEIKDFLVSQDRCAEVTLEGQMYPGKGGGSKEKNKTKPEKAKKKEGDRKPRASKEDNRAGSRREDL
modifications: left off: small tags and cut ends
notes: Recombinant full-length mouse Mesd expressed in E. coli, N-terminal polyhistidine tail, lacking the signal peptide
**Q.** With B1 as the molecule, how does the Bioavailability ([1]; intravenous (tail vein) or subcutaneous) read?
**A.** The Bioavailability was 60%.

**Q.** What about the Distribution into tissues ([1]; thyroid/parathyroid, liver, kidney, stomach, gastrointestinal tract) of the same molecule?
**A.** Its Distribution into tissues is “rapid and widespread”.

**Q.** What about the “Effect on Wnt3a CM-increased cell growth” value (HCC1187 cells) of the same molecule?
**A.** The value was “abolished”.

**Q.** And the “Specific Mesd binding to U87 or SMC” value (LRP)?
**A.** The value was “minimal”.

**Q.** What about the “Effect of excess unlabeled Mesd on the LRP6-dependent increase of 125I-RAP binding” value (LRP6) of the same molecule?
**A.** The value was “abolished”.
